According to IntAct's records for PubMed 16696976:

B1: Amphiphysin (Homo sapiens), P49418 (parent)
chain: MADIKTGIFAKNVQKRLNRAQEKVLQKLGKADETKDEQFEEYVQNFKRQEAEGTRLQRELRGYLAAIKGMQEASMKLTESLHEVYEPDWYGREDVKMVGEKCDVLWEDFHQKLVDGSLLTLDTYLGQFPDIKNRIAKRSRKLVDYDSARHHLEALQSSKRKDESRISKAEEEFQKAQKVFEEFNVDLQEELPSLWSRRVGFYVNTFKNVSSLEAKFHKEIAVLCHKLYEVMTKLGDQHADKAFTIQGAPSDSGPLRIAKTPSPPEEPSPLPSPTASPNHTLAPASPAPARPRSPSQTRKGPPVPPLPKVTPTKELQQENIISFFEDNFVPEISVTTPSQNEVPEVKKEETLLDLDFDPFKPEVTPAGSAGVTHSPMSQTLPWDLWTTSTDLVQPASGGSFNGFTQPQDTSLFTMQTDQSMICNLAESEQAPPTEPKAEEPLAAVTPAVGLDLGMDTRAEEPVEEAVIIPGADADAAVGTLVSAAEGAPGEEAEAEKATVPAGEGVSLEEAKIGTETTEGAESAQPEAEELEATVPQEKVIPSVVIEPASNHEEEGENEITIGAEPKETTEDAAPPGPTSETPELATEQKPIQDPQPTPSAPAMGAADQLASAREASQELPPGFLYKVETLHDFEAANSDELTLQRGDVVLVVPSDSEADQDAGWLVGVKESDWLQYRDLATYKGLFPENFTRRLD
partner: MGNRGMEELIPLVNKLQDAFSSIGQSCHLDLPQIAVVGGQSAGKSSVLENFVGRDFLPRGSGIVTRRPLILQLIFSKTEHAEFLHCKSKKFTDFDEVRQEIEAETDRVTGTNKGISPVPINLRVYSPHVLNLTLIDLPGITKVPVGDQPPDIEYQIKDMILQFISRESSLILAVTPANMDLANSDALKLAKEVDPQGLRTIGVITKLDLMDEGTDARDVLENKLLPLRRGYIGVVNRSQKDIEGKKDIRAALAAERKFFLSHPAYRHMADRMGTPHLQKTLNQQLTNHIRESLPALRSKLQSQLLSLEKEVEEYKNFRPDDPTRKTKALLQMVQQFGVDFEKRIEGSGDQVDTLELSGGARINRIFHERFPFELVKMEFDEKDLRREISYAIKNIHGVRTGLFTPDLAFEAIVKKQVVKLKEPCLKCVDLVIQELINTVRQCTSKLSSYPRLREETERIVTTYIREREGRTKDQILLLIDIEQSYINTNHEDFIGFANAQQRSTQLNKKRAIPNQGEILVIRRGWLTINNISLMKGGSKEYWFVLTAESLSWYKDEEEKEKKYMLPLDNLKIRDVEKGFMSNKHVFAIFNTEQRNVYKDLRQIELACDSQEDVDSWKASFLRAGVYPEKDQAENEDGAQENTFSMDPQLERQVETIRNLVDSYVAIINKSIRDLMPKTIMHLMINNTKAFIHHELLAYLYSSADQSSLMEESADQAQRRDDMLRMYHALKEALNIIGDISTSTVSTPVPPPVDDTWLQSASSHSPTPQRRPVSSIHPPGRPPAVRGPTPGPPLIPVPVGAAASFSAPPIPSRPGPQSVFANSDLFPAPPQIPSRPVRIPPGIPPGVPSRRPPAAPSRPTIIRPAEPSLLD

Variants of: B1
Details: with dyn2_human DNM2, P50570

| Variant | effect of a mutation on the interaction |
| --- | --- |
| G684R | disrupting interaction |
| P687L | disrupting interaction |
